Our source for the binding values is paper PMC4411124.

The target in data set [1] is T1, SoxR (Stenotrophomonas maltophilia K279a) (UniProt B2FRT7).
T1 sequence: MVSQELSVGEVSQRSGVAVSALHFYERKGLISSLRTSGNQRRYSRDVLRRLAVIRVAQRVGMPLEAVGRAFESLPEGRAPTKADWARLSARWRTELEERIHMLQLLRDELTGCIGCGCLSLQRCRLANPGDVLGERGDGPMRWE
In words: EMSA.

The target of data set [2] is T1, SoxR (Stenotrophomonas maltophilia K279a). The experiment in a line: competition.

Take “GAGGGTCGGGGTCATACGGGTCAGATGCGGGCCGCGCTTGTCAACCGACGGCGAAGATAGCAGCATGACACCTCAACTGCAGTTGAGGTCAAGCAATGGTGTCCCAGGAACTGAGCGTTGGCGAAGTCTCCCAGCGCAGTGGCGTGGCGGTTTCCGCGCTGCACTTCTACGAGCGCAAGGGGCTGATCAGCAGCCTGCGCACTTCGGGTAACCAGCGCCGCTACAGCCGCGACGTGCTGCGCCGGCTGGCGGTGATCCGC (double strand) [mfsA-soxR promoter fragment, 258 bp, wild type]”: the binding entry in data set [1] and in data set [2] was “binds” in each case.

Regarding “GCGGATCACCGCCAGCCGGCGCAGCACGTCGCGGCTGTAGCGGCGCTGGTTACCCGAAGTGCGCAGGCTGCTGATCAGCCCCTTGCGCTCGTAGAAGTGCAGCGCGGAAACCGCCACGCCACTGCGCTGGGAGACTTCGCCAACGCTCAGTTCCTGGGACACCATTGCTTGAAAGACCAGTACTGTGAGGTGTCATGCTGCTATCTTCGCCGTCGGTTGACAAGCGCGGCCCGCATCTGACCCGTATGACCCCGACCCTC (double strand) [mfsA-soxR promoter fragment, 258 bp, mutated SoxR box]”, the binding result in data set [1] is listed as “no binding”.
